Test results: paper PMC11375168 (Nature Communications, 2024)

Target: the molecule itself
Test: cryo-EM structure

B1: Mycobacterium tuberculosis EfpA (MtEfpA), full length, with C-terminal GFP and Strep-Tag II (natural protein)
chain: MTALNDTERAVRNWTAGRPHRPAPMRPPRSEETASERPSRYYPTWLPSRSFIAAVIAIGGMQLLATMDSTVAIVALPKIQNELSLSDAGRSWVITAYVLTFGGLMLLGGRLGDTIGRKRTFIVGVALFTISSVLCAVAWDEATLVIARLSQGVGSAIASPTGLALVATTFPKGPARNAATAVFAAMTAIGSVMGLVVGGALTEVSWRWAFLVNVPIGLVMIYLARTALRETNKERMKLDATGAILATLACTAAVFAFSIGPEKGWMSGITIGSGLVALAAAVAFVIVERTAENPVVPFHLFRDRNRLVTFSAILLAGGVMFSLTVCIGLYVQDILGYSALRAGVGFIPFVIAMGIGLGVSSQLVSRFSPRVLTIGGGYLLFGAMLYGSFFMHRGVPYFPNLVMPIVVGGIGIGMAVVPLTLSAIAGVGFDQIGPVSAIALMLQSLGGPLVLAVIQAVITSRTLYLGGTTGPVKFMNDVQLAALDHAYTYGLLWVAGAAIIVGGMALFIGYTPQQVAHAQEVKEAIDAGEL
stoichiometry N: 2
